Laboratory results from publication PMC5374532, “Rational mutagenesis by engineering disulphide bonds improves Kluyveromyces lactis beta-galactosidase for high-temperature industrial applications” (Scientific Reports, 2017).

Target: the molecule itself
Assay: AUC; sedimentation velocity, 0.2 mg/mL enzyme, 50 mM Tris-HCl, 150 mM NaCl, pH 7.4, 48 k rpm, c(s) distribution (SEDFIT); self-association, shares of monomer, dimer, trimer and tetramer

B1: Kluyveromyces lactis β-galactosidase (enzyme, UniProt P00723 2-1025, looked up)
chain: SCLIPENLRNPKKVHENRLPTRAYYYDQDIFESLNGPWAFALFDAPLDAPDAKNLDWETAKKWSTISVPSHWELQEDWKYGKPIYTNVQYPIPIDIPNPPTVNPTGVYARTFELDSKSIESFEHRLRFEGVDNCYELYVNGQYVGFNKGSRNGAEFDIQKYVSEGENLVVVKVFKWSDSTYIEDQDQWWLSGIYRDVSLLKLPKKAHIEDVRVTTTFVDSQYQDAELSVKVDVQGSSYDHINFTLYEPEDGSKVYDASSLLNEENGNTTFSTKEFISFSTKKNEETAFKINVKAPEHWTAENPTLYKYQLDLIGSDGSVIQSIKHHVGFRQVELKDGNITVNGKDILFRGVNRHDHHPRFGRAVPLDFVVRDLILMKKFNINAVRNSHYPNHPKVYDLFDKLGFWVIDEADLETHGVQEPFNRHTNLEAEYPDTKNKLYDVNAHYLSDNPEYEVAYLDRASQLVLRDVNHPSIIIWSLGNEACYGRNHKAMYKLIKQLDPTRLVHYEGDLNALSADIFSFMYPTFEIMERWRKNHTDENGKFEKPLILCEYGHAMGNGPGSLKEYQELFYKEKFYQGGFIWEWANHGIEFEDVSTADGKLHKAYAYGGDFKEEVHDGVFIMDGLCNSEHNPTPGLVEYKKVIEPVHIKIAHGSVTITNKHDFITTDHLLFIDKDTGKTIDVPSLKPEESVTIPSDTTYVVAVLKDDAGVLKAGHEIAWGQAELPLKVPDFVTETAEKAAKINDGKRYVSVESSGLHFILDKLLGKIESLKVKGKEISSKFEGSSITFWRPPTNNDEPRDFKNWKKYNIDLMKQNIHGVSVEKGSNGSLAVVTVNSRISPVVFYYGFETVQKYTIFANKINLNTSMKLTGEYQPPDFPRVGYEFWLGDSYESFEWLGRGPGESYPDKKESQRFGLYDSKDVEEFVYDYPQENGNHTDTHFLNIKFEGAGKLSIFQKEKPFNFKISDEYGVDEAAHACDVKRYGRHYLRLDHAIHGVGSEACGPAVLDQYRLKAQDFNFEFDLAFE
notes: β-galactosidase of Kluyveromyces lactis, LAC4 gene (Gene ID 2897170), amplified from plasmid pLX8 and cloned in YEpFLAG; Monomer 118 kDa as printed; also called Kl-β-Gal; native Kl-β-Gal; not shown: FLAG, N-terminal, kept
stoichiometry N: 2
